Publication PMC9897468 (Proceedings of the National Academy of Sciences of the …, 2022)

B1: full-length mouse KIF5AA homodimer (kinesin-1), unlabeled (natural protein, UniProt P33175 1-1027, looked up)
chain: MAETNNECSIKVLCRFRPLNQAEILRGDKFIPIFQGDDSVIIGGKPYVFDRVFPPNTTQEQVYHACAMQIVKDVLAGYNGTIFAYGQTSSGKTHTMEGKLHDPQLMGIIPRIARDIFNHIYSMDENLEFHIKVSYFEIYLDKIRDLLDVTKTNLSVHEDKNRVPFVKGCTERFVSSPEEILDVIDEGKSNRHVAVTNMNEHSSRSHSIFLINIKQENVETEQKLSGKLYLVDLAGSEKVSKTGAEGAVLDEAKNINKSLSALGNVISALAEGTKSYVPYRDSKMTRILQDSLGGNCRTTMFICCSPSSYNDAETKSTLMFGQRAKTIKNTASVNLELTAEQWKKKYEKEKEKTKAQKETIAKLEAELSRWRNGENVPETERLAGEDSALGAELCEETPVNDNSSIVVRIAPEERQKYEEEIRRLYKQLDDKDDEINQQSQLIEKLKQQMLDQEELLVSTRGDNEKVQRELSHLQSENDAAKDEVKEVLQALEELAVNYDQKSQEVEEKSQQNQLLVDELSQKVATMLSLESELQRLQEVSGHQRKRIAEVLNGLMRDLSEFSVIVGNGEIKLPVEISGAIEEEFTVARLYISKIKSEVKSVVKRCRQLENLQVECHRKMEVTGRELSSCQLLISQHEAKIRSLTEYMQTVELKKRHLEESYDSLSDELARLQAHETVHEVALKDKEPDTQDAEEVKKALELQMENHREAHHRQLARLRDEINEKQKTIDELKDLNQKLQLELEKLQADYERLKNEENEKSAKLQELTFLYERHEQSKQDLKGLEETVARELQTLHNLRKLFVQDVTTRVKKSAEMEPEDSGGIHSQKQKISFLENNLEQLTKVHKQLVRDNADLRCELPKLEKRLRATAERVKALEGALKEAKEGAMKDKRRYQQEVDRIKEAVRYKSSGKRGHSAQIAKPVRPGHYPASSPTNPYGTRSPECISYTNNLFQNYQNLHLQAAPSSTSDMYFASSGATSVAPLASYQKANMDNGNATDINDNRSDLPCGYEAEDQAKLFPLHQETAAS

Key:
[1] = molecular target: B1; assay: TIRF-M in vitro motility reconstitution
APC-mGFP = APC-mGFP (UniProt Q61315 1-2845); assay: TIRF-M in vitro motility reconstitution

binding result [1] | binding result (APC-mGFP) | Binder
binds |  | C-terminal APC fragment (APC-C), residues 2,163 to 2,845 (domain or fragment, UniProt Q61315 2163-2845, looked up, Alexa647 label (APC-C-647, in the TIRF-M experiments)) KGPRILKPGEKSTLEAKKIESENKGIKGGKKVYKSLITGKIRSNSEISSQMKQPLPTNMPSISRGRTMIHIPGLRNSSSSTSPVSKKGPPLKTPASKSPSEGPGATTSPRGTKPAGKSELSPITRQTSQISGSNKGSSRSGSRDSTPSRPTQQPLSRPMQSPGRNSISPGRNGISPPNKLSQLPRTSSPSTASTKSSGSGKMSYTSPGRQLSQQNLTKQASLSKNASSIPRSESASKGLNQMSNGNGSNKKVELSRMSSTKSSGSESDSSERPALVRQSTFIKEAPSPTLRRKLEESASFESLSPSSRPDSPTRSQAQTPVLSPSLPDMSLSTHPSVQAGGWRKLPPNLSPTIEYNDGRPTKRHDIARSHSESPSRLPINRAGTWKREHSKHSSSLPRVSTWRRTGSSSSILSASSESSEKAKSEDERHVSSMPAPRQMKENQVPTKGTWRKIKESDISPTGMASQSASSGAASGAESKPLIYQMAPPVSKTEDVWVRIEDCPINNPRSGRSPTGNTPPVIDSVSEKGSSSIKDSKDSKDTHGKQSVGSGSPVQTVGLETRLNSFVQVEAPEQKGTEAKPGQSNPVSIAETAETCIAERTPFSSSSSSKHSSPSGTVAARVTPFNYNPSPRKSSADSTSARPSQIPTPVSTNTKKRDSKTDITESSGAQSPKRHSGSYLVTSV
 | binds | B1
